assay: soluble on expression in E. coli; label from the status in PepcDB or PDB records

Sequence | soluble on expression in E. coli
MLSTNNITMQFGSKPLFENISVKFGGGNRYGLIGANGCGKSTFMKILGGDLVPSGGNVFLDPNERLGKLRQDQFAFENNTVLDTVIMGHGELWEVKEERDRIYAMAEMSEEDGYKVADLEVAYGEMDGYSAEARAGELLLGVGIPVEQHYGLMSEIAPGWKLRVLLAQALFSDPEILLLDEPTNNLDIDTIRWLEQVLNERNSTMIIISHDRHFLNMVCTHMADLDYGELRVYPGNYDEYMTAATQARERLLSDNAKKKAQISELQSFVSRFSANASKSKQATSRARQIDKIQLDEVKASSRQNPFIRFDQDRKLFRNALEVEMLTKGFDNGPLFKNLTLRLEVGEKVAILGPNGIGKSTLLKTLLGEYESDAGTVKWSENSKIGYYAQDHASDFDIDLTVFDWMSQWKQEKDDEQAVRSVLGRLLFSQDDIKKKVSVLSGGEKGRMLFGKLMMQRPNILVMDEPTNHLDMESIESLNMALEMYEGTLIFVSHDREFVSSLATRVIEMTPNKLIDFTGNYEDYLSSQGIHS | not soluble
MAHHHHHHMHQLRTFNYVASELGHDEPVLHAVFVTHRCLPPDPPEVNFTTAIPQTVTAASRRTSSDDASIGAAVHVEKTVVLSVEDTLAAPLEVALTVEQELAQLSKKLDAWKVQRLADLQARGGERSPSRLAQMEAAMERRLALRRIEEQDRAQKRVDALLSYLGPRIDKQLQLVAREHDGEEALSSSYARVETTSDVKDSACADKSAASAATPSPPSPRARILCDQQYFVKRQEIALEERGARQAVLRNMWDARRLAHLVEDEVSFRHSIEAREVVWRDRVHSELRASVEMDHV | not soluble
MSKKCLITGGAGFIGSHLAEELVGRGYNVTIVDNFYKGKNKYHDELMKEIRVIPISVLDKNSIYELVNQHDVVFHLAAILGVKTTMEKSIELIETNFDGTRNILQAALKGKKKVVFASTSEVYGKAKPPFSEEGDRLYGATSKIRWSYAICKTLEETLCLGYALEGLPVTIVRYFNIYGPRAKDGPYAGVIPRFISAALQGEDILVYGDGEQTRCFTYVSDAVEATIRAMDEKVNGEIINIGSENEKSIKEVAEVIKKLTDSSSKIVQVPFEEVYPHGFEEIPNRRPDVTKLKDLVQFQAKVTWEDGLKETIKWFREEDNG | soluble
MIEFHNVHKTYRVAGKEIPALHPTNLRVDDGQVFGIIGHSGAGKSTLLRLINRLETPSGGQIVVDGEDVTALDANGLRRFRQQVGMIFQHFNLLASRTVADNVAMPLTLAGDMPRKQIDQRVAELLERVGLSDHAKKYPAQLSGGQKQRVGIARALATKPKILLCDEATSALDPQTTASVLQLLAEINRELKLTIVLITHEMDVIRRVCDQVAVMDAGVIVEQGKVADVFLHPQHSTTKRFVQEDDQVDENEQRDDFAHVQGRIVRLTFQGDATYAPLLGTVARETGVDYSILAGRIDRIKDTPYGQLTLAITGGDMDAAFARFTAADVHMEVLR | not soluble
MDVAGLTDCGLIRKSNQDAFYIDEKHQRFFIVADGMGGHAGGEEASRLAVDHIRQYLETHLEDLQHDPVTLLRQAFLAANHAIVEQQRQNSARADMGTTAVVILLDEKGDRAWCAHVGDSRIYRWRKDQLQQITSDHTWIAQAVQLGSLTIEQARQHPWRHVLSQCLGREDLSQIDIQPIDLEPGDRLLLCSDGLTEELTDDVISIYLSEPNVQKAAAALVDAAKTHGGRDNVTVVVISV | soluble
SAFQAAAARLGAPVSHDFCAISLSDLMTPWEVIEKRIEAAASADFVTAVYNPRSRDRYWQIHRFRELFLRHRSPSTPVGIVRNVTRKDESVVLTTLGEFDPDSLDMFTMMLVGNSTTF | not soluble
MGSDKIHHHHHHDLDENVYDKLPTDEFGTTEKQINAIMAPAYQSLKNMLAYDGPWGAADMTADILIAPTRVGGDWWDGGQYMEQCMHSWKPNSYSVENCWTYCTEGLTTVNSVYNIIEKSEAMSDELKLQYLSELRGLRAFWYYVIVDIFGNAPLVTDFEDTSLPSITSRADLYKYVVKELTEIIPNLRSDVSDASYGKFTQGAARMVLAKMYLNAEEWIGEPNWKGVVEQCDEIMKLEYIIEPNWKTNFEVHNEVSREIIFPICYKASDAWGNSIHLWTLHYLDPDVLGFTGGMWNGINAQPDFVRTFDTEDPRYEGSFLIGPMIDPSTGEILKTTLGHDLIHTIDLNVVPGTEKTDADGNLTPWGEVHQEDGARINKWVYEKGMQNTNMENDIAIFRLADVYLMKAEALVRMGGDLGEATRLVNAIRERAYGNSDHNYTSVTLDDIYNERGYELAFEFVRRQDMIRFGTYLKPRYMKPKQTPEYRKIFPIPFKAWQKNNNLVQNPGYPAF | not soluble
HHHHHHDITFRNIRFRYKPDSPVILDNINLSIKQGEVIGIVGRSGSGKSTLTKLIQRFYIPENGQVLIDGHDLALADPNWLRRQVGVVLQDNVLLNRSIIDNISLANPGMSVEKVIYAAKLAGAHDFISELREGYNTIVGEQGAGLSGGQRQRIAIARALVNNPKILIFDEATSALDYESEHVIMRNMHKICKGRTVIIIAHRLSTVKNADRIIVMEKGKIVEQGKHKELLSEPESLYSYLYQLQSD | soluble
MYVQLSQRLKDVATYVPKGAKLLDVGSDHAYLPIYLLEKGLITSAIAGEVVKGPYESALANVSASGFNDKIDVRLANGLAAFEPYDAVTTITICGMGGRLIADILDAGKDKLKDVDRLILQPNNREDDLRIWLMENGFTIVAEAIMTEN | not soluble
MGHSQSYDLRNPEGGEKTPVRGVRRVSREHQTDAQFSTETAEPFDFREDELRDRIRREQLRKREVELETLRIRQHESREPIIDAYRQNQPAPQGNLYNEFNHYDSMKHASPSDPATYFALKPMTEVNEGRQFSIPTSSTRRYDQVPIDPSPELQRREVPSKQSPPNYPKRSSVFGGRVSPLPRQSEVDPHPMPRYIPPMSPSNPIDDVPPTHVSELHAEKRMIVGIDDELQPEKNNVTYVTVATAAIDNELLHRHPEVGRHPVYVLPAQTSYGASAKRRSSDDEAKNVLPPQNCTVEHCTHVAVNDGSPVVIRKRASQDSIRDKENRLTIPINEDDTENVGEGTNYQNVSKKCFEERLHYDSYMPTLSLRQRPVVSFYDKLH | not soluble
MRGSHHHHHHGRSLNPLSTPQFDSTDETPASYNLAVRRAAPAVVNVYNRGLNTNSHNQLEIRTLGSGVIMDQRGYIITNKHVINDADQIIVALQDGRVFEALLVGSDSLTDLAVLKINATGGLPTIPINARRVPHIGDVVLAIGNPYNLGQTITQGIISATGRIGLNPTGRQNFLQTDASINPGNSGGALVNSLGELMGINTLSFDKSNDGETPEGIGFAIPFQLATKIMDKLIRDGRVIRGYIGIGGREIAPLHAQGGGIDQLQGIVVNEVSPDGPAANAGIQVNDLIISVDNKPAISALETMAQVAEIRPGSVIPVVVMRDDKQLTLQVTIQEYPATN | soluble
GPGSMTELVPPEAIRFANGEPLCAYHECYRCFDGRDILFRLVNVEKKQWFFYNDTADTIAHVRAVFYPGSVIRPLQRADMHVIPGPTGVADETCSIEVTLDIQPGFTESFIEGEHKGFHLEFRTETAPTKEVVFEYRRPMVPYDKIYRCFKNGNGLLFRLVDERVRQWFFYNDTRDLMMKVSVTFANSAEVRPLGCTALGAPHADTAPESVVYTLLIAPGCTEPFIEGNPVTYTLEFAAEPVDAPVTPVLEEPVQYLHGSPDVAVIPHQTHVFKCFKEHGNGLLFRVVDDVNTIWAFYNDTPDYVMTANMRYPSTSDIRLAPGVQVIADSEREGGFVAAVEVLPLATVPFLVGSPEQYELAFAATPVAPLTPSPTTSPEPSSPPQLADAADAAATVPPALPVPEEAPVYCNSGPDLTVMPNIDEVYKCFKDYGNGLVFRLVDKVQRRWAFYNDTTDIVALVRVQFSPGAHIQPLGHTVLGCDLESGSVLHELRVNPLETALFVEGDVDIFTTKFVAEEIQT | soluble
MGSDKIHHHHHHMNTLTDILNRPRKLRPECLLIVGDSNMGKTTIIHEFARQYYTKTVSDADMDLLSVTKPVLPILAPAKANVKELYINILNHFFVPFRASDPEAKLRNQAVHLMRKYETKMLIIDEIHNCLTGSAKLLPEVMNTLKNLSNELSLNIVGVGTREAITILHTDPQYASRFDVVNLPKWELNQDFLRLLVSYVRLLPLKKQSNLASKEIATLIFEVSGGNLGDLNRLLVECAKEAILQGDEEITYDIVHKFKWLKPTEGLRNIRNINLSLS | not soluble
MHHHHHHSSGVDLGTENLYFQSMVDATRVPMDERFRTLKKKLEEGMVFTEYEQIPKKKANGIFSTAALPENAERSRIREVVPYEENRVELIPTKENNTGYINASHIKVVVGGAEWHYIATQGPLPHTCHDFWQMVWEQGVNVIAMVTAEEEGGRTKSHRYWPKLGSKHSSATYGKFKVTTKFRTDSVCYATTGLKVKHLLSGQERTVWHLQYTDWPDHGCPEDVQGFLSYLEEIQSVRRHTNSMLEGTKNRHPPIVVHCSAGVGRTGVLILSELMIYCLEHNEKVEVPMMLRLLREQRMFMIQTIAQYKFVYQVLIQFLQNSRLI | soluble
KAKTEDFVKAFQVFDKESTGKVSVGDLRYMLTGLGEKLTDAEVDELLKGVEVDSNGEIDYKKFIEDVLRQ | soluble
MGSDKIHHHHHHMSPKAAIHNRSGSFSDRWIAYCQQRNIPYKTVDCHSSDIIEELADCSFLMWNWSQTYAEDMLIARGLIKAVESMGIRVFPNSETCWHFDDKVAQKYLMEALGVPMVKSYVFLDRARALEWARKTEYPKVFKLRGGAGSSNVFLVNDINKAERLINKAFSTGFPPVSRWNALSERWWQFKRDKTFISFFNISRGIFRALIKNPTLERLPVQRNYAYFQDFVPDNDSDIRVIAIGKRAFGIKRMVREGDFRASGSGKILYDPELIPEACIRMTFDLAKKTRSQSLVLDFIFSDGSPLVVEMSYAFASHGYLSCPGYWRNDMTWVEGSFHPEDFMVDDLIVSSVERS | not soluble
MRKSKRERQRLLQETIRENPFITDEELAEKFSVSVQTIRLDRLELSIPELRERIKNVARQSFADKVRALPLEEVIGDIIDIEPDASAISIFDVKEEHVFRRTRIARGHHLFAQANSLAVAVIHDELALTAKATIRFVRQVKEGERVVAKAKVTGKTAHGRTIVEVNSYVGQELVFSGTFEMYRSNIEKKDGDSNEYRG | not soluble
MGHHHHHHSHNTTKPKSLAVKKAKWHLGIRSQSKPYDIMAEVYRAMKQLDFEWKVVNAYHLRVRRKNPVTGNYVKMSLQLYLVDNRSYLLDFKSIDDEVVEQRSGS | not soluble
MAQRRESLNMGEFAEEAIIVEEVAAPKRVNHFIEANTQEVTLQHLQQDCIIPSFASMEETISHQSFIGAVVDAAKDYFHGEQFDMPEIRISHPINGRIPSALGKKASELTDEEKTLFYQRMCFCFEIPSIVHDEYGNRLALSIGGVRAYNEINLYSKKSVERFKIFIGFRNRVCSNLMLTTDGLQDKIEVLSIQELYAAALNLFHAYNPSKDLHLLRTLGQMSISTSEFCQIIGRMRLYQALTPNQQKRLPRLLLGDSQINAACRAFVSDANFKSTGDSITGWQLLNLLNGSVKSSYIDNFLERNLNCTEFVQGIQRAKLGDSEYAWFLG | not soluble
GMADAPIDIFQSILSRKSIRAFTDQPVTQETIREILKLAARAPSGTNLQPWQVIVLTGKILQKVGQELSQLVLSGIKGEREYHYYPRQWREPYLSRRRKVGLDLYKSLGIQKGDQEKMLHQKAKNFLFYGAPVGLLFTIDHDMEMGSWLDLGMFMQTIMLAARGFGLDTCAQAAFADYHKQIRSLLSVPSDRHIICGMALGYRDMNAPENNFETEREPIDNFVHFIKSYP | soluble
